Measured values: patent US20240108738A1, “BICYCLIC PEPTIDE LIGANDS SPECIFIC FOR NK CELLS” (Bicycle Tx Limited, priority 2021, published 2024)
Numbered stars: 1 amine (or outer) side, 2 acyl side, 3 side chain; on linkers, the order of the positions; unused ones are H or OH. Bridge positions count the residues as written; N and C are the ends. Ends that are not written are not given here. * marks the point of attachment. TBMT = 2,4,6-tris(bromomethyl)-s-triazine, C(c1nc(C[*:2])nc(C[*:3])n1)[*:1]; Pent4ynoyl = C#CCCC(=O)*

Each binder was assayed against Human NKp46 Fc tag (Acro Biosystems, NC1-H5257) (human), O76036 (assay: SPR Method 1 and/or 2).
Chain of Human NKp46 Fc tag (Acro Biosystems, NC1-H5257) (human), O76036 (O76036 22-255 limits assumed): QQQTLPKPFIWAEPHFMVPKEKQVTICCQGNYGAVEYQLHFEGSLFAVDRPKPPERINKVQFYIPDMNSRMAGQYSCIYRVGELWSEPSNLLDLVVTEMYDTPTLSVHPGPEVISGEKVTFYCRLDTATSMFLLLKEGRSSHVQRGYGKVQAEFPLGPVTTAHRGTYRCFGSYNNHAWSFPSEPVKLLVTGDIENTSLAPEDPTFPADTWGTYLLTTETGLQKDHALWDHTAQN
A Kd of 3760 nM was found for ACDLTTHNCVWGICA (modifications not checked) [BCY18285] in this work.
A Kd of 1260 nM was found for ACDLTTHNCIWGVCA (modifications not checked) [BCY14458] in this work.
A Kd of 1920 nM was found for ACNLQAPCMYTGKVCA (modifications not checked) [BCY18318] in this work.
A Kd of 2760 nM was found for ACNLQQACLHTGKVCA (modifications not checked) [BCY14454] in this work.
A Kd of 1530 nM was found for ACNLQAPCMLTGAVCA (modifications not checked) [BCY18304] in this work.
A Kd of 2880 nM was found for ACLLHEHCPNTHPKMCA (modifications not checked) [BCY15104] in this work.
A Kd of 1640 nM was found for ACDLTTHNCAWGICA (modifications not checked) [BCY18269] in this work.
A Kd of 2750 nM was found for ACNLQAPCMHTGKVCA (modifications not checked) [BCY19711] in this work.
A Kd of 1830 nM was found for ACNLQQACMQTGKVCA (modifications not checked) [BCY19713] in this work.
A Kd of 2680 nM was found for ACNLQAPCMVTGKVCA (modifications not checked) [BCY19702] in this work.
A Kd of 2510 nM was found for CNLQAPCMLTGKVCA (modifications not checked) [BCY19694] in this work.
A Kd of 3730 nM was found for ACLLHDHCPNSHPEICA (modifications not checked) [BCY15105] in this work.
A Kd of 2670 nM was found for ACLLHDHCPNTHPIICA (modifications not checked) [BCY15106] in this work.
A Kd of 5380 nM was found for ACNLQAPCMLAGKVCA (modifications not checked) [BCY18302] in this work.
A Kd of 1660 nM was found for ACLLHDHCPNTHPKLCA (modifications not checked) [BCY15103] in this work.
A Kd of 6410 nM was found for CNLQAPCMLTGKVC (modifications not checked) [BCY18295] in this work.
A Kd of 3140 nM was found for ACNLQAPCLHTGKVCA (modifications not checked) [BCY19712] in this work.
A Kd of 4030 nM was found for ACNLQAPCMATGKVCA (modifications not checked) [BCY18301] in this work.
A Kd of 1510 nM was found for ACNLQAPCMETGKVCA (modifications not checked) [BCY18316] in this work.
A Kd of 1520 nM was found for ACDLQTHNCQWGICA (modifications not checked) [BCY18277] in this work.
A Kd of 2270 nM was found for ACLLHDHCPNTHPKMCA (modifications not checked) [BCY14457] in this work.
A Kd of 3190 nM was found for ACDLTTHNCQWGACA (modifications not checked) [BCY18272] in this work.
A Kd of 1110 nM was found for CDLTTHNCQWGICA (modifications not checked) [BCY19718] in this work.
A Kd of 1090 nM was found for ACNLQNPCMKFPCA (modifications not checked) [BCY15102] in this work.
A Kd of 1480 nM was found for ACDLATHNCQWGICA (modifications not checked) [BCY18265] in this work.
A Kd of 2380 nM was found for KCNLQAPCMLTGKVCA (modifications not checked) [BCY19695] in this work.
A Kd of 1800 nM was found for ACNLQAACMLTGKVCA (modifications not checked) [BCY18299] in this work.

Each binder was assayed against biotinylated human FcγRIII (CD16a), variant not stated (human) (UniProt P08637) (assay: SPR Method A).
Chain of biotinylated human FcγRIII (CD16a), variant not stated (human) (P08637 17-208, change not shown): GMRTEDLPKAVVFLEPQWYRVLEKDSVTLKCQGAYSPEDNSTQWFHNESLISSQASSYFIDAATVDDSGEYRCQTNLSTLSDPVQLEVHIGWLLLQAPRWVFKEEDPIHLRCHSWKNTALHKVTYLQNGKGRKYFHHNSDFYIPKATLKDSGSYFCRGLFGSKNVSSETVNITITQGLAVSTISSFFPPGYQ
A Kd of 1800 nM was found for ACRWSVEDPCGAWCAK(Pent4ynoyl)-NH2 (linker 2-10-14 via TBMT (inferred)) [BCY13883] in this work.
A Kd of 2200 nM was found for ACVGLEELGPCSDLCAK(Pent4ynoyl)-NH2 (linker 2-11-15 via TBMT (inferred)) [BCY13886] in this work.
